Reference: PMC9482650, “Quantitative fragmentomics allow affinity mapping of interactomes” (Nature Communications, 2022)

T1: PDZD2_2, O15018
T1 sequence (O15018 329-429, limits assumed, looked up): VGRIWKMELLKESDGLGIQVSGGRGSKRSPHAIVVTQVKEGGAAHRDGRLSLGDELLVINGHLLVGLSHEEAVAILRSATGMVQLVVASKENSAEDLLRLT

T2: DVL3, Q92997
T2 sequence (Q92997 244-331, limits assumed, looked up): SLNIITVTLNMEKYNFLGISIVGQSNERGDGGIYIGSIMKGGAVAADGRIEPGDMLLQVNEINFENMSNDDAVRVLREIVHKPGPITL

T3: APBA3_1, O96018
T3 sequence (O96018 389-490, limits assumed, looked up): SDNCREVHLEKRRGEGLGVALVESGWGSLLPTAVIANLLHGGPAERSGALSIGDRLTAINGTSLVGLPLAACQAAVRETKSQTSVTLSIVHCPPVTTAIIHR

T4: MPP7, Q5T2T1
T4 sequence (Q5T2T1 134-230, limits assumed, looked up): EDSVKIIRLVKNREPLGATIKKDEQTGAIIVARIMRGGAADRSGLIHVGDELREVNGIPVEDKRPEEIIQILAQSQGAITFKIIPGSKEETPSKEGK

T5: MPP6, Q9NZW5
T5 sequence (Q9NZW5 125-219, limits assumed, looked up): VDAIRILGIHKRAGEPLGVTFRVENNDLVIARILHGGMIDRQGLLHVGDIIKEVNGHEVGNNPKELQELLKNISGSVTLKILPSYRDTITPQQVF

T6: APBA2_1, Q99767
T6 sequence (Q99767 563-664, limits assumed, looked up): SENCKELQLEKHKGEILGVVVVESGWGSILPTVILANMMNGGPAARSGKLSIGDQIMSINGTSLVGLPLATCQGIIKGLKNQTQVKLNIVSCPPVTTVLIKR

T7: DLG3_1, Q92796
T7 sequence (Q92796 125-227, limits assumed, looked up): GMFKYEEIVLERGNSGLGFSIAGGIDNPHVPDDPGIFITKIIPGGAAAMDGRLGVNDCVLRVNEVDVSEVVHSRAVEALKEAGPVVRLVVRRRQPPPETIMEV

T8: LRRC7, Q96NW7
T8 sequence (Q96NW7 1440-1537, limits assumed, looked up): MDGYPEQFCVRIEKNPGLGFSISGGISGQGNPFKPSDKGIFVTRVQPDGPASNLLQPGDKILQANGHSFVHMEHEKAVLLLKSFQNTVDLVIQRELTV

T9: PTPN13_1, Q12923
T9 sequence (Q12923 1088-1188, limits assumed, looked up): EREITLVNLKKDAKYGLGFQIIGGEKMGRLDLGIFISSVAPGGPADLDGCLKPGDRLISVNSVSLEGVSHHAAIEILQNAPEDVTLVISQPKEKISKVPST

T10: ARHGEF11, O15085
T10 sequence (O15085 42-136, limits assumed, looked up): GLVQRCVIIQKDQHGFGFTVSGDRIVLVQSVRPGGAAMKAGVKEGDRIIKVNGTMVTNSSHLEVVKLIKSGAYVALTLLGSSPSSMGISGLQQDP

T11: SNTB1, Q13884
T11 sequence (Q13884 107-205, limits assumed, looked up): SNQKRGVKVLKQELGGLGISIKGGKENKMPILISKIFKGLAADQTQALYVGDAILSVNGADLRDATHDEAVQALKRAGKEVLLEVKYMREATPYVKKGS

T12: SNTA1, Q13424
T12 sequence (Q13424 82-180, limits assumed, looked up): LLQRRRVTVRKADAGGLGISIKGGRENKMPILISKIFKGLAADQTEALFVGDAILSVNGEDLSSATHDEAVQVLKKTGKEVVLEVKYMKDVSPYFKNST

T13: RAPGEF6, Q8TEU7
T13 sequence (Q8TEU7 525-625, limits assumed, looked up): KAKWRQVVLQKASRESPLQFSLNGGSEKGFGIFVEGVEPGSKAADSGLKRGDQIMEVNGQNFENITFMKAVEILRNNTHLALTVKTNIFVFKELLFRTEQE


Target: T1, PDZD2_2, O15018
Assay: holdup assay
Parameters: key: below the threshold = too weak to quantify, mostly under pKd 3.1 to 4
Settings: plain residues with an end cap or a label only (N-terminal biotin on a linker: ttds)

| pKd | Binder |
| --- | --- |
| 3.87 | EMDRRPATVV [PLCB4, Q15147] |

Target: T2, DVL3, Q92997
Assay: holdup assay
Parameters: key: below the threshold = too weak to quantify, mostly under pKd 3.1 to 4
Settings: plain residues with an end cap or a label only (N-terminal biotin on a linker: ttds)

| pKd | Binder |
| --- | --- |
| below the threshold | EMDRRPATVV [PLCB4, Q15147] |

Target: T3, APBA3_1, O96018
Assay: holdup assay
Parameters: key: below the threshold = too weak to quantify, mostly under pKd 3.1 to 4
Settings: plain residues with an end cap or a label only (N-terminal biotin on a linker: ttds)

| pKd | Binder |
| --- | --- |
| below the threshold | EMDRRPATVV [PLCB4, Q15147] |

Target: T4, MPP7, Q5T2T1
Assay: holdup assay
Parameters: key: below the threshold = too weak to quantify, mostly under pKd 3.1 to 4
Settings: plain residues with an end cap or a label only (N-terminal biotin on a linker: ttds)

| pKd | Binder |
| --- | --- |
| below the threshold | EMDRRPATVV [PLCB4, Q15147] |

Target: T5, MPP6, Q9NZW5
Assay: holdup assay
Parameters: key: below the threshold = too weak to quantify, mostly under pKd 3.1 to 4
Settings: plain residues with an end cap or a label only (N-terminal biotin on a linker: ttds)

| pKd | Binder |
| --- | --- |
| below the threshold | EMDRRPATVV [PLCB4, Q15147] |

Target: T6, APBA2_1, Q99767
Assay: holdup assay
Parameters: key: below the threshold = too weak to quantify, mostly under pKd 3.1 to 4
Settings: plain residues with an end cap or a label only (N-terminal biotin on a linker: ttds)

| pKd | Binder |
| --- | --- |
| below the threshold | EMDRRPATVV [PLCB4, Q15147] |

Target: FRMPD2_1, Q68DX3
Assay: holdup assay
Parameters: key: below the threshold = too weak to quantify, mostly under pKd 3.1 to 4
Settings: plain residues with an end cap or a label only (N-terminal biotin on a linker: ttds)

Sequence of FRMPD2_1, Q68DX3 (Q68DX3 770-861): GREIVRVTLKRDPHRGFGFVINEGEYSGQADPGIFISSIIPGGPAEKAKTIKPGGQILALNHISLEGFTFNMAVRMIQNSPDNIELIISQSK

| pKd | Binder |
| --- | --- |
| 3.97 | EMDRRPATVV [PLCB4, Q15147] |

Target: SNX27, Q96L92
Assay: holdup assay
Parameters: key: below the threshold = too weak to quantify, mostly under pKd 3.1 to 4
Settings: plain residues with an end cap or a label only (N-terminal biotin on a linker: ttds)

| pKd | Binder |
| --- | --- |
| below the threshold | EMDRRPATVV [PLCB4, Q15147] |

Target: T7, DLG3_1, Q92796
Assay: holdup assay
Parameters: key: below the threshold = too weak to quantify, mostly under pKd 3.1 to 4
Settings: plain residues with an end cap or a label only (N-terminal biotin on a linker: ttds)

| pKd | Binder |
| --- | --- |
| below the threshold | EMDRRPATVV [PLCB4, Q15147] |

Target: DLG2_3, Q15700
Assay: holdup assay
Parameters: key: below the threshold = too weak to quantify, mostly under pKd 3.1 to 4
Settings: plain residues with an end cap or a label only (N-terminal biotin on a linker: ttds)

| pKd | Binder |
| --- | --- |
| 3.86 | EMDRRPATVV [PLCB4, Q15147] |

Target: T8, LRRC7, Q96NW7
Assay: holdup assay
Parameters: key: below the threshold = too weak to quantify, mostly under pKd 3.1 to 4
Settings: plain residues with an end cap or a label only (N-terminal biotin on a linker: ttds)

| pKd | Binder |
| --- | --- |
| below the threshold | EMDRRPATVV [PLCB4, Q15147] |

Target: HTRA2, O43464
Assay: holdup assay
Parameters: key: below the threshold = too weak to quantify, mostly under pKd 3.1 to 4
Settings: plain residues with an end cap or a label only (N-terminal biotin on a linker: ttds)

Sequence of HTRA2, O43464 (O43464 355-458): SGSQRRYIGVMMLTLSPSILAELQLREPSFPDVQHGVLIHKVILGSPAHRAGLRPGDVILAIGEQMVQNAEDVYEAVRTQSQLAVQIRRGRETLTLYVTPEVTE

| pKd | Binder |
| --- | --- |
| below the threshold | EMDRRPATVV [PLCB4, Q15147] |

Target: T9, PTPN13_1, Q12923
Assay: holdup assay
Parameters: key: below the threshold = too weak to quantify, mostly under pKd 3.1 to 4
Settings: plain residues with an end cap or a label only (N-terminal biotin on a linker: ttds)

| pKd | Binder |
| --- | --- |
| below the threshold | EMDRRPATVV [PLCB4, Q15147] |

Target: T10, ARHGEF11, O15085
Assay: holdup assay
Parameters: key: below the threshold = too weak to quantify, mostly under pKd 3.1 to 4
Settings: plain residues with an end cap or a label only (N-terminal biotin on a linker: ttds)

| pKd | Binder |
| --- | --- |
| 4.6 | EMDRRPATVV [PLCB4, Q15147] |

Target: GRIP2_6, Q9C0E4
Assay: holdup assay
Parameters: key: below the threshold = too weak to quantify, mostly under pKd 3.1 to 4
Settings: plain residues with an end cap or a label only (N-terminal biotin on a linker: ttds)

Sequence of GRIP2_6, Q9C0E4 (Q9C0E4 648-740): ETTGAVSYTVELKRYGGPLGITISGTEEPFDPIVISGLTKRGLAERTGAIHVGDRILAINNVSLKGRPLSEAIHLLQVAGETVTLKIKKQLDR

| pKd | Binder |
| --- | --- |
| 3.67 | EMDRRPATVV [PLCB4, Q15147] |

Target: FRMPD2_3, Q68DX3
Assay: holdup assay
Parameters: key: below the threshold = too weak to quantify, mostly under pKd 3.1 to 4
Settings: plain residues with an end cap or a label only (N-terminal biotin on a linker: ttds)

Sequence of FRMPD2_3, Q68DX3 (Q68DX3 1073-1166): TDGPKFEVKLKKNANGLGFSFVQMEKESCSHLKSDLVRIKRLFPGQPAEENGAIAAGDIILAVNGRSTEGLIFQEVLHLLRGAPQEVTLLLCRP

| pKd | Binder |
| --- | --- |
| 4.01 | EMDRRPATVV [PLCB4, Q15147] |

Target: T11, SNTB1, Q13884
Assay: holdup assay
Parameters: key: below the threshold = too weak to quantify, mostly under pKd 3.1 to 4
Settings: plain residues with an end cap or a label only (N-terminal biotin on a linker: ttds)

| pKd | Binder |
| --- | --- |
| 4.71 | EMDRRPATVV [PLCB4, Q15147] |

Target: T12, SNTA1, Q13424
Assay: holdup assay
Parameters: key: below the threshold = too weak to quantify, mostly under pKd 3.1 to 4
Settings: plain residues with an end cap or a label only (N-terminal biotin on a linker: ttds)

| pKd | Binder |
| --- | --- |
| 4.08 | EMDRRPATVV [PLCB4, Q15147] |

Target: AHNAK1, Q09666
Assay: holdup assay
Parameters: key: below the threshold = too weak to quantify, mostly under pKd 3.1 to 4
Settings: plain residues with an end cap or a label only (N-terminal biotin on a linker: ttds)

Sequence of AHNAK1, Q09666 (Q09666 4-100): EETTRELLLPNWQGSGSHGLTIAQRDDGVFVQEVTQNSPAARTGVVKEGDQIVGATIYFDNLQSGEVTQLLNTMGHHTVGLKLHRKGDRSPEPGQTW

| pKd | Binder |
| --- | --- |
| below the threshold | EMDRRPATVV [PLCB4, Q15147] |

Target: T13, RAPGEF6, Q8TEU7
Assay: holdup assay
Parameters: key: below the threshold = too weak to quantify, mostly under pKd 3.1 to 4
Settings: plain residues with an end cap or a label only (N-terminal biotin on a linker: ttds)

| pKd | Binder |
| --- | --- |
| below the threshold | EMDRRPATVV [PLCB4, Q15147] |

Target: IL16_4, Q14005
Assay: holdup assay
Parameters: key: below the threshold = too weak to quantify, mostly under pKd 3.1 to 4
Settings: plain residues with an end cap or a label only (N-terminal biotin on a linker: ttds)

Sequence of IL16_4, Q14005 (Q14005 1229-1329): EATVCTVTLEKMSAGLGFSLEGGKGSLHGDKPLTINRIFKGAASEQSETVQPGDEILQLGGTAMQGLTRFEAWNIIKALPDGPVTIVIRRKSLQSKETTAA

| pKd | Binder |
| --- | --- |
| below the threshold | EMDRRPATVV [PLCB4, Q15147] |

Target: PARD3_3, Q8TEW0
Assay: holdup assay
Parameters: key: below the threshold = too weak to quantify, mostly under pKd 3.1 to 4
Settings: plain residues with an end cap or a label only (N-terminal biotin on a linker: ttds)

Sequence of PARD3_3, Q8TEW0 (Q8TEW0 582-685): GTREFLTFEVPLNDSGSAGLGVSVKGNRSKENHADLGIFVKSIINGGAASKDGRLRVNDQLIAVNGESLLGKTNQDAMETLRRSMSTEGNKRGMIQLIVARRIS

| pKd | Binder |
| --- | --- |
| below the threshold | EMDRRPATVV [PLCB4, Q15147] |

Target: DLG5_1, Q8TDM6
Assay: holdup assay
Parameters: key: below the threshold = too weak to quantify, mostly under pKd 3.1 to 4
Settings: plain residues with an end cap or a label only (N-terminal biotin on a linker: ttds)

Sequence of DLG5_1, Q8TDM6 (Q8TDM6 617-713): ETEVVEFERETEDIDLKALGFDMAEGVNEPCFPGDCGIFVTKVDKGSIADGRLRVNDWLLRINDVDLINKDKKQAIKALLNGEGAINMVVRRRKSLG

| pKd | Binder |
| --- | --- |
| below the threshold | EMDRRPATVV [PLCB4, Q15147] |

Target: LAP2, Q96RT1
Assay: holdup assay
Parameters: key: below the threshold = too weak to quantify, mostly under pKd 3.1 to 4
Settings: plain residues with an end cap or a label only (N-terminal biotin on a linker: ttds)

Sequence of LAP2, Q96RT1 (Q96RT1 other isoform, or with tags, fused parts or gaps): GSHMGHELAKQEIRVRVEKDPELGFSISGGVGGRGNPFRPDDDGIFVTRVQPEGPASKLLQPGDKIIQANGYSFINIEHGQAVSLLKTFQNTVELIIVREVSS

| pKd | Binder |
| --- | --- |
| below the threshold | EMDRRPATVV [PLCB4, Q15147] |

Target: MAGI2_6, Q86UL8
Assay: holdup assay
Parameters: key: below the threshold = too weak to quantify, mostly under pKd 3.1 to 4
Settings: plain residues with an end cap or a label only (N-terminal biotin on a linker: ttds)

Sequence of MAGI2_6, Q86UL8 (Q86UL8 1141-1229): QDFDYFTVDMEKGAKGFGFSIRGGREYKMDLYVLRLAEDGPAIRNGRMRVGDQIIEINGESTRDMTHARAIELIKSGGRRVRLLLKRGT

| pKd | Binder |
| --- | --- |
| below the threshold | EMDRRPATVV [PLCB4, Q15147] |
